Laboratory results: publication PMC4500170

Tested on: Cc1cc(O)cc2c(C(=O)O)c(O)ccc12
Assay: purified protein
Details: 2.5 mM SAM, 100 mM phosphate pH 6.5, 25 °C, 10 μM enzyme

With “NcsB1 (Streptomyces carzinostaticus; Y293I)” as the substance, how does the Km read?
Its Km is 649 ± 9 µM.

What about the kcat of the same substance?
Its kcat is 0.0127 ± 0.000667 s⁻¹.

How did the Km turn out when “NcsB1 (Streptomyces carzinostaticus; R11K)” was run?
The Km was 319 ± 40 µM.

What about the kcat of the same substance?
The kcat was 0.0197 ± 0.000833 s⁻¹.

How did the Km turn out when “NcsB1 (Streptomyces carzinostaticus; R11W)” was run?
The Km was 400 ± 68 µM.

What about the kcat of the same substance?
Its kcat is 0.01 ± 0.0005 s⁻¹.

How did the Km turn out when “NcsB1 (Streptomyces carzinostaticus; R11A)” was run?
The Km was 419 ± 61 µM.

And the kcat?
The kcat was 0.0207 ± 0.001 s⁻¹.
